Assay results reported in patent US12616737B2, “Liquid formulations of amylin analogues” (Zealand Pharma A/S, priority 2022, dated 2026).
Numbered stars: 1 amine (or outer) side, 2 acyl side, 3 side chain; on linkers, the order of the positions; unused ones are H or OH. Bridge positions count the residues as written; N and C are the ends. Square brackets hold non-standard residues; d marks the D form. * marks the point of attachment. C20 diacid = O=C(O)CCCCCCCCCCCCCCCCCCC(=O)*; γGlu = O=C(O)[C@H](CCC(=O)[*:2])N[*:1]; Hyp = O=C(O)[C@@H]1C[C@@H](O)CN1; NMeI = CC[C@H](C)[C@H](NC)C(=O)O; Aad = N[C@@H](CCCC(=O)O)C(=O)O; Sar = CNCC(=O)O

What was measured:
[1] = human trials; cited from earlier work
pI of the peptide = format: physicochemical
hAMYR3 = molecular target: T1, hAMYR3 (Homo sapiens, UniProt P30988); conditions: as described in WO 2018/046719; cited from earlier work
T1 sequence (P30988 25-474): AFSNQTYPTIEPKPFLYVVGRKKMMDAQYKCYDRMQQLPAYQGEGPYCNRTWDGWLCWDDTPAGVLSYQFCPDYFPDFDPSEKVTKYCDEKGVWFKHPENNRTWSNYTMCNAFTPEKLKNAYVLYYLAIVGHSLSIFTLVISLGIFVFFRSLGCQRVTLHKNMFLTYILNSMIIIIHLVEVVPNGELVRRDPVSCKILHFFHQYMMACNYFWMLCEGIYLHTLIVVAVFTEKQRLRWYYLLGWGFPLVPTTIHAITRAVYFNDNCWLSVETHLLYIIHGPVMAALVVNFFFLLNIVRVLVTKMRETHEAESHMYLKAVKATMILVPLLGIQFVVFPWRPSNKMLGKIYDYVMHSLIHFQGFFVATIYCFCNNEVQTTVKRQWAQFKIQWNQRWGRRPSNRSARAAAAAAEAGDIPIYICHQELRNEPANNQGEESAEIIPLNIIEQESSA
T1 sequence (O60896 24-148 partner): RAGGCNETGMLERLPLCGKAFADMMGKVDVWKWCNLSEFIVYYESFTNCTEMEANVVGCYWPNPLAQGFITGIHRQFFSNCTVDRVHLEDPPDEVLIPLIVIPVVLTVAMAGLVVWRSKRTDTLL

hAMYR1 = hAMYR1 (Homo sapiens, UniProt P30988); conditions: as described in WO 2018/046719; cited from earlier work
Sequence of hAMYR1 (O60894 27-148 partner, one chain of several): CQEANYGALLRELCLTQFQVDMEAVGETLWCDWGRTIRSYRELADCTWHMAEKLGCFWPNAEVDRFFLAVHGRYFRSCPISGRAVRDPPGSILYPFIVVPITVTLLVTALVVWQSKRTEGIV

hAMYR2 = hAMYR2 (Homo sapiens, UniProt P30988); conditions: as described in WO 2018/046719; cited from earlier work
Sequence of hAMYR2 (O60895 43-175 partner, one chain of several): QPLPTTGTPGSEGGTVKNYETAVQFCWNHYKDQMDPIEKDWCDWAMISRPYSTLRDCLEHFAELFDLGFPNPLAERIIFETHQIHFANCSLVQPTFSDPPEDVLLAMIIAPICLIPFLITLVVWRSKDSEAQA

[2] = Dynamic light scattering (DLS) (ASSAY IIIc), peptide particle size; format: physicochemical; conditions: initial z-average by DLS, 1 mg/ml CPD 1, 20 mM TRIS, 118 mM NaCl
Experimental: Dynamic Light Scattering (DLS) (ASSAY IIIc)
Peptide particle size distribution was determined with dynamic light scattering analysis. The standard DLS experiment is conducted in a nunc 96 well plate with a sample volume of 165 μL and measured in a DynaPro Plate reader II instrument. Typically used parameters were temperature at 25° C., acquisition time 2 s, 50 acquisitions per sample, Detection: Hydrodynamic radius Rh, Correlation function cut off [μs]: […] and Peak radius cut off [nm]: 0.5-1000.

[3] = Physical stability evaluation by ThT-stress test (ASSAY IIId), lag-time of fibril formation; format: physicochemical; conditions: for ThT lag time: 1 mg/ml CPD 1, 20 mM TRIS, 118 mM NaCl
Experimental: Physical Stability Evaluation by ThT-Stress Test (ASSAY IIId)
A 1 mM ThT stock solution was prepared and 12 μL was mixed with 288 μL of CPD 1 formulation. Samples were loaded in a 96-well black fluorescence plate (clear bottom) in duplicate 2×150 μL. Data were collected in a Fluorescence Plate reader from Biotek Synergy™ H4 Hybrid Multi-Mode at fixed intervals of 10 min, each preceded by 300 s of auto mixing (agitation), over a period of up to 60 hours at 40° C. Physical stability, expressed as lag-time of fibril formation (in hours), was defined as the intersection between two linear regressions representing the initial stable phase and the growth phase.
Physical stability was evaluated in terms of fibril formation by ThT-stress test measured over 60 hours at 40° C. Initial peptide particle size (z-average) was also determined by DLS.

[4] = Solubility test: CPD 1 dissolved in alkaline MQW by stirring, visual control; format: physicochemical; conditions: in MQW (alkaline, NaOH)
Experimental: To test solubility, CPD 1 was dissolved in alkaline MQW (pH adjusted with NaOH) by stirring.

| Compound | effect on body weight [1] | pI of the peptide (pI of the peptide) | agonist activity at hAMYR3 (hAMYR3) | agonist activity at hAMYR1 (hAMYR1) | agonist activity at hAMYR2 (hAMYR2) | Peptide particle size (nm) ([2]; pH 5.8) | Peptide particle size (nm) ([2]; pH 6.0) | Peptide particle size (nm) ([2]; pH 6.3) | Peptide particle size (nm) ([2]; pH 6.6) | Peptide particle size (nm) ([2]; pH 6.8) | Peptide particle size (nm) ([2]; pH 7.0) | ThT lag time ([3]; pH 5.8, ThT-stress test over 60 hours at 40° C.) [h] | ThT lag time ([3]; pH 6.0, over 60 hours at 40° C.) [h] | ThT lag time ([3]; pH 6.3, over 60 hours at 40° C.) [h] | ThT lag time ([3]; pH 6.6, over 60 hours at 40° C.) [h] | ThT lag time ([3]; pH 6.8, over 60 hours at 40° C.) [h] | ThT lag time ([3]; pH 7.0, over 60 hours at 40° C.) [h] | stability towards fibrillation and aggregation ([3]; pH range 5.8-7.0, ThT-stress test and DLS (Table 3)) | Concentration at which CPD 1 could be dissolved to a clear solution [4] |
| --- | --- | --- | --- | --- | --- | --- | --- | --- | --- | --- | --- | --- | --- | --- | --- | --- | --- | --- | --- |
| CC[C@H](C)[C@H](NC(=O)[C@@H]1CCCN1C(=O)CNC(=O)[C@H](Cc1ccccc1)NC(=O)[C@H](CC(N)=O)NC(=O)[C@H](CC(N)=O)NC(=O)[C@H](CO)NC(=O)[C@H](CO)NC(=O)[C@H](Cc1c[nH]cn1)NC(=O)[C@@H](NC(=O)[C@H](CC(C)C)NC(=O)[C@H](Cc1ccccc1)NC(=O)[C@H](CC(N)=O)NC(=O)[C@H](C)NC(=O)[C@H](CC(C)C)NC(=O)[C@H](CCCNC(=N)N)NC(=O)[C@H](CCC(N)=O)NC(=O)[C@@H](NC(=O)[C@H](C)NC(=O)[C@@H]1CSSC[C@H](NC(=O)[C@@H](N)CCCCN)C(=O)N[C@@H](CC(N)=O)C(=O)N[C@@H]([C@@H](C)O)C(=O)N[C@@H](C)C(=O)N[C@@H]([C@@H](C)O)C(=O)N1)[C@@H](C)O)C(C)C)C(=O)N[C@@H](CC(C)C)C(=O)N1CCC[C@H]1C(=O)N1CCC[C@H]1C(=O)N[C@H](C(=O)N[C@@H](CC(N)=O)C(=O)N[C@H](C(=O)NCC(=O)N[C@@H](CO)C(=O)N[C@@H](CC(N)=O)C(=O)N[C@H](C(=O)N[C@@H](Cc1ccc(O)cc1)C(N)=O)[C@@H](C)O)C(C)C)[C@@H](C)O [pramlintide] | reduce body weight or reduce weight gain | – | – | – | – | – | – | – | – | – | – | – | – | – | – | – | – | – | – |
| [19CD]-isoGlu-RD( )GTATK( )ATERLA-Aad-FLQRSSF-Gly(Me)-A-Ile(Me)-LSSTEVGSNT-Hyp-NH2 ({C20 diacid}-[γGlu]RDGTATKATERLA[Aad]FLQRSSF[Sar]A[NMeI]LSSTEVGSNT[Hyp]-NH2; lactam 3-8) [CPD 1] | – | 4.36 | agonist activity | agonist activity | agonist activity | 3.3 | 4.0 | 3.2 | 3.0 | 3.7 | 3.0 | >60 | >60 | >60 | >60 | >60 | >60 | stable towards fibrillation and aggregation impacting peptide particle size | up to 50 mg/ml |
